# B1: Hairpin Ribozyme (parent)
# chain: GUCCUCUUUCACGUGCGCGUGAAAGAGAGAAGUGAACCAGAGAAACACACGUUGUGGUAUAUUACCUGGUA
# Variants of: B1
# Assay: self-cleavage, relative activity (ratio to wild type); higher = more cleavage; co-transcriptional
row,Variant,self-cleavage
1,GUACUCUUUCACGUGCUCGUGAAAGAGAGAAGUGAACCAGAGAAACACACGUUGUGGUAUAUUACCUGGUA,0.571
2,GUACUCUUUCACGUGCGCGUGAAAGAGAGAAGUGAACCAGAGAAAUACACGUUGUGGUAUAUUACCUGGUA,0.111
3,GUACUCUUACACGUGCGCGUGAAAGAGAGAAGUGAACCAGAGAAACACACGUUGUGGUAUAUUACCUGGUA,0.401
4,GUACUCUUGCACGUGCGCGUGAAAGAGAGAAGUGAACCAGAGAAACACACGUUGUGGUAUAUUACCUGGUA,0.576
5,GUACUCUUCCACGUGCGCGUGAAAGAGAGAAGUGAACCAGAGAAACACACGUUGUGGUAUAUUACCUGGUA,0.532
6,GUACUCUUUCACGUGCGCGUGAAAGAGAGAAGUGAACCAGAGAAACACACGUUGUGGUAUAUUAUCUGGUA,0.222
7,GUGCUCUUUCACGUGCGCGUGAAAGAGAGAAGUGAACCAGAGAAACACACGUUGUGGUAUCUUACCUGGUA,0.168
8,GUGCUCUUUCACGUGCGCGUGAAAGAGAGAAGUGAACCAGAGAAACCCACGUUGUGGUAUAUUACCUGGUA,0.0701
9,GUGCUCUUUCACGUGGGCGUGAAAGAGAGAAGUGAACCAGAGAAACACACGUUGUGGUAUAUUACCUGGUA,0.34
10,GUGCUCUUUCACGUGCGCGUGAAAGAGAGAAGUGACCCAGAGAAACACACGUUGUGGUAUAUUACCUGGUA,0.165
11,GUACUCUUUCACGUGCGUGUGAAAGAGAGAAGUGAACCAGAGAAACACACGUUGUGGUAUAUUACCUGGUA,0.717
12,GUACUCUUUCACGUGCGAGUGAAAGAGAGAAGUGAACCAGAGAAACACACGUUGUGGUAUAUUACCUGGUA,0.634
13,GUACUCUUUCACGUGCGCGUGAAAGAGAGAAGUGAACCAGAGAAACACACGUUGAGGUAUAUUACCUGGUA,0.172
14,GUGCUCUUUCAGGUGCGCGUGAAAGAGAGAAGUGAACCAGAGAAACACACGUUGUGGUAUAUUACCUGGUA,0.199
15,GUGCUCUUUCACGUGCGCGUGAAAGAGAGGAGUGAACCAGAGAAACACACGUUGUGGUAUAUUACCUGGUA,0.1
16,GUACACUUUCACGUGCGCGUGAAAGAGAGAAGUGAACCAGAGAAACACACGUUGUGGUAUAUUACCUGGUA,0.214
17,GUGCUCUUUCACGUGCGCGUGGAAGAGAGAAGUGAACCAGAGAAACACACGUUGUGGUAUAUUACCUGGUA,0.264
18,GUACUCUUUCACGUGCGCGUGAAAGAGAGAAGUGAACCAGAGAAACAUACGUUGUGGUAUAUUACCUGGUA,0.112
19,GUACUCUUUCACGUGCGCGUGAAAGAGAGAAGUGAACCAGAGAAACAGACGUUGUGGUAUAUUACCUGGUA,0.158

row,Variant,self-cleavage
1,GUACUCUUUCACGUGCGCGUGAAAGAGAGAAGUGAACCAGAGAAACACACGUUGUGGUAUAUUACCGGGUA,0.199
2,GUACUCUUUCACGUGCGCGUGAAAGAGAGAAGUGAACCAGAGAAACACACGUUGUGGUAUAUUACCAGGUA,0.132
3,GUACUCUUUCACGUGCGCGUGAAAGAGAGAAGUGAACCAGAGAAACACACGUUGUUGUAUAUUACCUGGUA,0.162
4,GUACUCUUUCACGUGCGCGUGAAAGAGAGAAGUGAACCAGAGAAACACACGUUGUAGUAUAUUACCUGGUA,0.127
5,GUGCUCUUUCACGUGCGCGUGAAAGGGAGAAGUGAACCAGAGAAACACACGUUGUGGUAUAUUACCUGGUA,0.338
6,GUACUCUUUUACGUGCGCGUGAAAGAGAGAAGUGAACCAGAGAAACACACGUUGUGGUAUAUUACCUGGUA,0.595
7,GUACUCUUUCACCUGCGCGUGAAAGAGAGAAGUGAACCAGAGAAACACACGUUGUGGUAUAUUACCUGGUA,0.51
8,GUACUCUUUCACGUGCGCGUGAAAGAGAGAAGUGAACCAAAGAAACACACGUUGUGGUAUAUUACCUGGUA,0.23
9,GUGCUCUUUCACGUGCGCGUGAAAGAGAGAAGUGAACCAGAGAACCACACGUUGUGGUAUAUUACCUGGUA,0.0981
10,GUGCUCUUUCACGUGCGCGUGAAAGAGAGAAGUGAACCAGAGAAGCACACGUUGUGGUAUAUUACCUGGUA,0.118
11,GUACUCUUUCACGUGCGCGUGAAAGAGAGAAGUGAACCAGAGAAACACACGAUGUGGUAUAUUACCUGGUA,0.7
12,GUACUCUUUCACGUGCGCGUGAAAGAGAGAAGUGAACCAGAGAAACACACGUUGUGGUACAUUACCUGGUA,1.07
13,GUGCUCUUUCACGUGCGCGUGAAAGAGAGAAGUGAACCAGUGAAACACACGUUGUGGUAUAUUACCUGGUA,0.527
14,GUGCUCUUUCACGUGCGCGUGAAAGAGAGAAGUGAACCAGCGAAACACACGUUGUGGUAUAUUACCUGGUA,0.341
15,GUACUCUUUCACGUGCGCGUGAAAGAGAGAAGUGAACCAGAGAAACACACGUGGUGGUAUAUUACCUGGUA,0.613
16,GUACUCUUUCACGUGCGCGUGAAAGAGAGAAGUGAACCAGAGAAACACACGUUGUGGUAUAUUCCCUGGUA,0.197
17,GUACUCUUUCACGUGCGCGUGAAAGAGAGAAGUGAACCAGAGAAACACACGUUGUGGUAUAUUGCCUGGUA,0.54
18,GUGCUCUUUCACGUGCGCGUGAAAGAGAGAAGUGAACCAGAGAAACACACGUUGUGGUAUAUUUCCUGGUA,0.134
19,GUACUCUCUCACGUGCGCGUGAAAGAGAGAAGUGAACCAGAGAAACACACGUUGUGGUAUAUUACCUGGUA,0.427

# Reference: the RNAGym collection of RNA variant scans (doi:10.7554/elife.80360)
